B1: FgMDH (cytosolic malate dehydrogenase of Fasciola gigantica) (Fasciola gigantica) (protein)
chain: MAPVKVLITGAAGQIGYNLAGMVARGDMLGPNQELILHLFDITPMLNSLHGLQMELDDCAFPLVREVVITDKAEVAFDDIDIALMVGAMPRKEGMERKDLLQANANIFKEQGKVLNEKAKKTVKVIVVGNPANTNALIMMKNAPSIPKENFSAMTRLDHNRATAQIAKRLKIPCTAVKNCVIWGNHSATQFPDVSHAVASIGGKDVKVWDAIKDEEWLKNEFVTTVQKRGAAVIAARKLSSAMSAAKAVVDHIHDWWYGTKPGEWVSMSVWSDGSYGAPVDVFFSFPVEIKDKKWTIVKDLSMDDWGKSMFKTTAEELSEEKVAALGK
notes: ~36 kDa, dimer ~72 kDa

Columns and labels:
[1] = biological target: cytosolic malate dehydrogenase from Fasciola gigantica (Fasciola gigantica); assay: SEC; gel filtration on Superdex 200 (AKTA FPLC), buffer B (50 mM phosphate pH 7.6, 150 mM NaCl, 10% glycerol), room temperature, 0.3 mL/min; column calibrated with mass standards; single peak at about 15.3 mL, ~72 kDa against ~36 kDa for the monomer
purified protein [2] = substrate: O=C(O)CC(=O)C(=O)O; assay: purified protein; assay type: biochemical, Fasciola gigantica; conditions: co-substrate NADH (0.21 mM), 50 mM Tris-Cl, pH 8.0, 25 °C, 50 nM enzyme
purified protein [3] = substrate: NC(=O)c1ccc[n+]([C@@H]2O[C@H](COP(=O)(O)OP(=O)(O)OC[C@H]3O[C@@H](n4cnc5c(N)ncnc54)[C@H](O)[C@@H]3O)[C@@H](O)[C@H]2O)c1; assay: purified protein; assay type: biochemical, Fasciola gigantica; conditions: co-substrate malate (assay text: 3 mM, misprinted as MDH), 50 mM glycine buffer, pH 9.6, 25 °C, 50 nM enzyme, varied: cofactor
purified protein [4] = substrate: NC(=O)C1=CN([C@@H]2O[C@H](COP(=O)(O)OP(=O)(O)OC[C@H]3O[C@@H](n4cnc5c(N)ncnc54)[C@H](O)[C@@H]3O)[C@@H](O)[C@H]2O)C=CC1; assay: purified protein; assay type: biochemical, Fasciola gigantica; conditions: co-substrate oxaloacetate (0.2 mM), 50 mM Tris-Cl, pH 8.0, 25 °C, 50 nM enzyme, varied: cofactor
purified protein [5] = substrate: O=C(O)C[C@H](O)C(=O)O; assay: purified protein; assay type: biochemical, Fasciola gigantica; conditions: co-substrate NAD+ (0.5 mM), 50 mM glycine buffer, pH 9.6, 25 °C, 50 nM enzyme

| Molecule | stoichiometry N [1] | Km (purified protein [2]) [µM] | Vmax (purified protein [2]) [µmol/min] | Km (purified protein [3]) [µM] | Vmax (purified protein [3]) [µmol/min] | Km (purified protein [4]) [µM] | Vmax (purified protein [4]) [µmol/min] | Km (purified protein [5]) [µM] | Vmax (purified protein [5]) [µmol/min] |
| --- | --- | --- | --- | --- | --- | --- | --- | --- | --- |
| cytosolic malate dehydrogenase from Fasciola gigantica (enzyme) | 2 |  |  |  |  |  |  |  |  |
| B1 |  | 276 ± 92 | 4.1 | 309 ± 15 | 18.7 | 141 ± 54 | 3.42 | 447 ± 47 | 5.45 |

Reference: publication PMC7415141, “Identification and characterization of cytosolic malate dehydrogenase from the liver fluke Fasciola gigantica” (Scientific Reports, 2020)
